{
  "source": "the supplement of paper PMC12764529",
  "key": {"[1]": {"assay": "folding stability dG unfold from trypsin proteolysis; higher = more stable", "outline": "(§1)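 K50 was inferred by Bayesian fitting of sequencing counts obtained after protease digestion of designed mini-proteins. Unfolding free energy was derived by comparison with a sequence-predicted unfolded-state K50 and a shared folded-state K50, for each protease or both combined. The mini-proteins were under 80 residues, had no cysteine, were carried in a PA-tagged cDNA display construct, and were kept only if AlphaFold2 dimer inter-PAE exceeded 15.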"}, "[2]": {"assay": "folding stability dG unfold from chymotrypsin proteolysis; higher = more stable", "outline": "as §1"}, "[3]": {"assay": "folding stability dG unfold (combined trypsin and chymotrypsin); higher = more stable", "outline": "as §1"}},
  "note": "± gives the half width of the 95% confidence interval.",
  "data": [
    {"sequence": "SAGGMVIVIKTPGGASELEIGDLTITTNPDTGLRVAEATPEQIEELLKADALKDIEEIEVLPIEELLSAGGS [r8_493_TrMRF]", "values": [
      {"measurement": "folding stability dG unfold", "setting": "[1]", "result": "0.406 ± 0.047", "unit": "kcal/mol"},
      {"measurement": "folding stability dG unfold", "setting": "[2]", "result": "-0.0529 ± 0.038", "unit": "kcal/mol"},
      {"measurement": "folding stability dG unfold", "setting": "[3]", "result": "0.243 ± 0.11", "unit": "kcal/mol"}
    ]},
    {"sequence": "SAGGSAGGSAGKIYIVKLPNETIEIEFEGTEEEAIDFAIKELEKLFPKPIPKDDIIILGGSAGGSAGGSAGG [r11_1028_TrMRF]", "values": [
      {"measurement": "folding stability dG unfold", "setting": "[1]", "result": "1.76 ± 0.074", "unit": "kcal/mol"},
      {"measurement": "folding stability dG unfold", "setting": "[2]", "result": "1.65 ± 0.043", "unit": "kcal/mol"},
      {"measurement": "folding stability dG unfold", "setting": "[3]", "result": "1.71 ± 0.14", "unit": "kcal/mol"}
    ]},
    {"sequence": "SAGGKKVFTLDELKKLAEELNIEKIEVKEDEEGIYTFTFTDLAKKTGKEVTIKIVRNKNGELLVEIEPSAGG [r13_163_TrROS_Hall]", "values": [
      {"measurement": "folding stability dG unfold", "setting": "[1]", "result": "1.78 ± 0.074", "unit": "kcal/mol"},
      {"measurement": "folding stability dG unfold", "setting": "[2]", "result": "2.9 ± 0.087", "unit": "kcal/mol"},
      {"measurement": "folding stability dG unfold", "setting": "[3]", "result": "2.53 ± 0.14", "unit": "kcal/mol"}
    ]},
    {"sequence": "SAGGSAGGSAGYIKTEHEVTVMEKDPDGGTKMIEVPVKITIPIIPIPPEALEKNPEALKKFLSAGGSAGGSA [r18_114_TrROS]", "values": [
      {"measurement": "folding stability dG unfold", "setting": "[1]", "result": "0.461 ± 0.19", "unit": "kcal/mol"},
      {"measurement": "folding stability dG unfold", "setting": "[2]", "result": "0.352 ± 0.14", "unit": "kcal/mol"},
      {"measurement": "folding stability dG unfold", "setting": "[3]", "result": "0.514 ± 0.22", "unit": "kcal/mol"}
    ]},
    {"sequence": "SAGGSAGGSAKYLVVGGKVIEIPSGGDAKIETTKDDRVKVTIDLPDDRKLEFTFPVPKWVGSAGGSAGGSAG [r3_207_TrMRF]", "values": [
      {"measurement": "folding stability dG unfold", "setting": "[1]", "result": "0.514 ± 0.029", "unit": "kcal/mol"},
      {"measurement": "folding stability dG unfold", "setting": "[2]", "result": "0.215 ± 0.099", "unit": "kcal/mol"},
      {"measurement": "folding stability dG unfold", "setting": "[3]", "result": "0.408 ± 0.07", "unit": "kcal/mol"}
    ]},
    {"sequence": "SAGGSAGGSKTPVFYIPPSLKDPEKAIELLEEIRKKIPPGTKIAVIAPGGGIPELKKAGLITASAGGSAGGS [r12_992_TrMRF]", "values": [
      {"measurement": "folding stability dG unfold", "setting": "[1]", "result": "0.344 ± 0.048", "unit": "kcal/mol"},
      {"measurement": "folding stability dG unfold", "setting": "[2]", "result": "0.518 ± 0.03", "unit": "kcal/mol"},
      {"measurement": "folding stability dG unfold", "setting": "[3]", "result": "0.472 ± 0.11", "unit": "kcal/mol"}
    ]},
    {"sequence": "SAGGSAKIDIEVDPEDGYIRIKLEVQHNDEPVKATMWYPLPDDGMFIRIRFDMPNGKIEEIETIPPSAGGSA [r2_331_TrROS]", "values": [
      {"measurement": "folding stability dG unfold", "setting": "[1]", "result": "2.69 ± 0.14", "unit": "kcal/mol"},
      {"measurement": "folding stability dG unfold", "setting": "[2]", "result": "4.07 ± 0.12", "unit": "kcal/mol"},
      {"measurement": "folding stability dG unfold", "setting": "[3]", "result": "3.91 ± 0.27", "unit": "kcal/mol"}
    ]},
    {"sequence": "SAGMEIKYTITVSLSSGQTLGTKTITDPGKSIEEIVKEFAKIPGLTLITVTVTNPDGTPTTVTIPVNPSAGG [r19_269_JUSTAS]", "values": [
      {"measurement": "folding stability dG unfold", "setting": "[1]", "result": "2.24 ± 0.059", "unit": "kcal/mol"},
      {"measurement": "folding stability dG unfold", "setting": "[2]", "result": "3.072 ± 0.022", "unit": "kcal/mol"},
      {"measurement": "folding stability dG unfold", "setting": "[3]", "result": "2.79 ± 0.051", "unit": "kcal/mol"}
    ]},
    {"sequence": "SAGGKLTITLPPGVKEVKIEVDKETNEVKVTVTVEVTDENGKKHKVTRTFTFKLEDGETVTVTVTLPSAGGS [r16_552_TrROS_Hall]", "values": [
      {"measurement": "folding stability dG unfold", "setting": "[1]", "result": "4.42 ± 0.27", "unit": "kcal/mol"},
      {"measurement": "folding stability dG unfold", "setting": "[2]", "result": "5.43 ± 0.13", "unit": "kcal/mol"},
      {"measurement": "folding stability dG unfold", "setting": "[3]", "result": "5.44 ± 0.28", "unit": "kcal/mol"}
    ]},
    {"sequence": "SAGGSAGGSKKALVVFYNPETGEVEVLEVEGDADLLKELFEPGTVVEIRVGDEVITIYPEDLKSAGGSAGGS [r20_36_TrMRF]", "values": [
      {"measurement": "folding stability dG unfold", "setting": "[1]", "result": "1.51 ± 0.085", "unit": "kcal/mol"},
      {"measurement": "folding stability dG unfold", "setting": "[2]", "result": "2.41 ± 0.054", "unit": "kcal/mol"},
      {"measurement": "folding stability dG unfold", "setting": "[3]", "result": "2.11 ± 0.058", "unit": "kcal/mol"}
    ]},
    {"sequence": "SAGGSSIKIEKIEKHENGVKIDISVPDLSNEEEINAVKKKLAEELGLKEEDVEVSLKSENIPLPPSIGSAGG [r13_430_JUSTAS]", "values": [
      {"measurement": "folding stability dG unfold", "setting": "[1]", "result": "0.474 ± 0.11", "unit": "kcal/mol"},
      {"measurement": "folding stability dG unfold", "setting": "[2]", "result": "2.32 ± 0.21", "unit": "kcal/mol"},
      {"measurement": "folding stability dG unfold", "setting": "[3]", "result": "1.75 ± 0.22", "unit": "kcal/mol"}
    ]},
    {"sequence": "SAGSVTTITDPAGTTTEIQPLPDGSLLTTTTTHTTNPATGGATTTTTTTLVSPVPGQPSTTTSTTTTPASAG [r5_424_JUSTAS]", "values": [
      {"measurement": "folding stability dG unfold", "setting": "[1]", "result": "1.58 ± 0.039", "unit": "kcal/mol"},
      {"measurement": "folding stability dG unfold", "setting": "[2]", "result": "0.195 ± 0.027", "unit": "kcal/mol"},
      {"measurement": "folding stability dG unfold", "setting": "[3]", "result": "1 ± 0.051", "unit": "kcal/mol"}
    ]},
    {"sequence": "SAGGSMTVVIVKLRPPDSPEVLYLPFRGRLPNGDWVPISLEELLEALEALPDLEVEEIIVAPPEEISAGGSA [r2_192_TrMRF]", "values": [
      {"measurement": "folding stability dG unfold", "setting": "[1]", "result": "1.73 ± 0.16", "unit": "kcal/mol"},
      {"measurement": "folding stability dG unfold", "setting": "[2]", "result": "1.74 ± 0.087", "unit": "kcal/mol"},
      {"measurement": "folding stability dG unfold", "setting": "[3]", "result": "1.7 ± 0.23", "unit": "kcal/mol"}
    ]},
    {"sequence": "SAGGSAGGSAGPTLTLTLPPGKLSPEFLEALAAQGYTLGEVTVTEVPEDDTVVVTVTTAPSAGGSAGGSAGG [r11_345_JUSTAS]", "values": [
      {"measurement": "folding stability dG unfold", "setting": "[1]", "result": "1.4 ± 0.069", "unit": "kcal/mol"},
      {"measurement": "folding stability dG unfold", "setting": "[2]", "result": "0.623 ± 0.12", "unit": "kcal/mol"},
      {"measurement": "folding stability dG unfold", "setting": "[3]", "result": "1.1 ± 0.069", "unit": "kcal/mol"}
    ]},
    {"sequence": "SAGGMTITVTVGPGKEEEAVEALKKKTGLKVELVETTPRPVRAPDGTVLEEVEEITIKITKPDPNLKESAGG [r13_943_JUSTAS]", "values": [
      {"measurement": "folding stability dG unfold", "setting": "[1]", "result": "-0.511 ± 0.21", "unit": "kcal/mol"},
      {"measurement": "folding stability dG unfold", "setting": "[2]", "result": "-0.269 ± 0.2", "unit": "kcal/mol"},
      {"measurement": "folding stability dG unfold", "setting": "[3]", "result": "-0.638 ± 0.45", "unit": "kcal/mol"}
    ]},
    {"sequence": "GRMYIVKIEIKVKRRDPEEGETRERKLEVHVIFPPNDPDALEKADEIARNLAEEDGITDVKVKIYPIRLPDS [r1_346_TrROS]", "values": [
      {"measurement": "folding stability dG unfold", "setting": "[1]", "result": "1.48 ± 0.051", "unit": "kcal/mol"},
      {"measurement": "folding stability dG unfold", "setting": "[2]", "result": "1.89 ± 0.073", "unit": "kcal/mol"},
      {"measurement": "folding stability dG unfold", "setting": "[3]", "result": "1.74 ± 0.22", "unit": "kcal/mol"}
    ]},
    {"sequence": "SAGGKIKKGETVKIKIEIENKNGEKKTIELEVKKEDLEKLKELIEKLKEKGFKIKKIEIKVLKKEKKSAGGS [r8_497_TrROS_Hall]", "values": [
      {"measurement": "folding stability dG unfold", "setting": "[1]", "result": "1.02 ± 0.13", "unit": "kcal/mol"},
      {"measurement": "folding stability dG unfold", "setting": "[2]", "result": "2.96 ± 0.03", "unit": "kcal/mol"},
      {"measurement": "folding stability dG unfold", "setting": "[3]", "result": "2.51 ± 0.2", "unit": "kcal/mol"}
    ]}
  ]
}
